Test results reported in publication PMC10397247.

How the values were obtained:
Experiment in all cases: two-hybrid library CCmax;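 further: natural log of median RNA to DNA barcode read ratio; higher means stronger binding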
4H1262-AA = biological target: T1, 4H1262-AA
T1 chain: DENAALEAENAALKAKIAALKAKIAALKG

4H133-AA = biological target: T2, 4H133-AA; conditions: mean of both orientations
T2 chain: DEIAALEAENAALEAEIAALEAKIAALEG

4H1349-AA = biological target: T3, 4H1349-AA; conditions: mean of both orientations
T3 chain: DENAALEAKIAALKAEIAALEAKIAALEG

4H1384-AA = biological target: T4, 4H1384-AA; conditions: mean of both orientations
T4 chain: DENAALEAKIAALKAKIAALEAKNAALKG

4H1449-AA = biological target: T5, 4H1449-AA; conditions: mean of both orientations
T5 chain: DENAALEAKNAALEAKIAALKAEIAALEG

4H1593-AA = biological target: T6, 4H1593-AA; conditions: mean of both orientations
T6 chain: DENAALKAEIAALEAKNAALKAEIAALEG

4H1878-AA = biological target: T7, 4H1878-AA; conditions: mean of both orientations
T7 chain: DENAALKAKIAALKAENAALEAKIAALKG

4H235-AA = biological target: T8, 4H235-AA; conditions: mean of both orientations
T8 chain: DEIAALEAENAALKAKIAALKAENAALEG

4H249-AA = biological target: T9, 4H249-AA; conditions: mean of both orientations
T9 chain: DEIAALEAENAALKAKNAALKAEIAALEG

4H2580-AA = biological target: T10, 4H2580-AA; conditions: mean of both orientations
T10 chain: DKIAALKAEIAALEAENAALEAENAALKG

4H2604-AA = biological target: T11, 4H2604-AA; conditions: mean of both orientations
T11 chain: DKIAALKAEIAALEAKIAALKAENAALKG

4H2621-AA = biological target: T12, 4H2621-AA; conditions: mean of both orientations
T12 chain: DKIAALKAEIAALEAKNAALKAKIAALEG

4H2760-AA = biological target: T13, 4H2760-AA; conditions: mean of both orientations
T13 chain: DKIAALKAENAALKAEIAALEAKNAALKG

4H2774-AA = biological target: T14, 4H2774-AA; conditions: mean of both orientations
T14 chain: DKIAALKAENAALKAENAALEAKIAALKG

4H2903-AA = biological target: T15, 4H2903-AA; conditions: mean of both orientations
T15 chain: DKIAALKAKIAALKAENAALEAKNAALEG

4H2947-AA = biological target: T16, 4H2947-AA; conditions: mean of both orientations
T16 chain: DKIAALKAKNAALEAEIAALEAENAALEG

4H2961-AA = biological target: T17, 4H2961-AA; conditions: mean of both orientations
T17 chain: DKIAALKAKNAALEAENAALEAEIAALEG

4H3049-AA = biological target: T18, 4H3049-AA; conditions: mean of both orientations
T18 chain: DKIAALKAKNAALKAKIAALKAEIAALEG

4H3094-AA = biological target: T19, 4H3094-AA; conditions: mean of both orientations
T19 chain: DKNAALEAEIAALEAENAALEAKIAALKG

4H324-AA = biological target: T20, 4H324-AA; conditions: mean of both orientations
T20 chain: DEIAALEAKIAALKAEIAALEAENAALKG

4H341-AA = biological target: T21, 4H341-AA; conditions: mean of both orientations
T21 chain: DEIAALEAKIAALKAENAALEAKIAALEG

4H3449-AA = biological target: T22, 4H3449-AA; conditions: mean of both orientations
T22 chain: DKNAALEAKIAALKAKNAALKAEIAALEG

4H3619-AA = biological target: T23, 4H3619-AA; conditions: mean of both orientations
T23 chain: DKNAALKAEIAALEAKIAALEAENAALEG

4H3629-AA = biological target: T24, 4H3629-AA; conditions: mean of both orientations
T24 chain: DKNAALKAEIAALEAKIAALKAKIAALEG

4H3777-AA = biological target: T25, 4H3777-AA; conditions: mean of both orientations
T25 chain: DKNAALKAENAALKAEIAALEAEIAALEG

4H380-AA = biological target: T26, 4H380-AA; conditions: mean of both orientations
T26 chain: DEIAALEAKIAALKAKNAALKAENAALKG

4H3915-AA = biological target: T27, 4H3915-AA; conditions: mean of both orientations
T27 chain: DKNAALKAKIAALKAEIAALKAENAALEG

4H3974-AA = biological target: T28, 4H3974-AA; conditions: mean of both orientations
T28 chain: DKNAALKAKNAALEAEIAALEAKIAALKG

4H432-AA = biological target: T29, 4H432-AA; conditions: mean of both orientations
T29 chain: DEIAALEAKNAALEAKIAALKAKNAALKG

4H446-AA = biological target: T30, 4H446-AA; conditions: mean of both orientations
T30 chain: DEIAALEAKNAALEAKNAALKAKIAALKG

4H63-AA = biological target: T31, 4H63-AA; conditions: mean of both orientations
T31 chain: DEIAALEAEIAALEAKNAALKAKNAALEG

- interaction score (4H1262-AA): 0.551
- interaction score (4H133-AA): 1.64
- interaction score (4H1349-AA): 0.283
- interaction score (4H1384-AA): -0.839
- interaction score (4H1449-AA): -0.611
- interaction score (4H1593-AA): -1.34
- interaction score (4H1878-AA): -1.09
- interaction score (4H235-AA): -0.797
- interaction score (4H249-AA): -0.555
- interaction score (4H2580-AA): -1.41
- interaction score (4H2604-AA): -0.779
- interaction score (4H2621-AA): -1.25
- interaction score (4H2760-AA): 1.09
- interaction score (4H2774-AA): 1.29
- interaction score (4H2903-AA): -1.83
- interaction score (4H2947-AA): 0.251
- interaction score (4H2961-AA): -0.013
- interaction score (4H3049-AA): 1.23
- interaction score (4H3094-AA): -0.633
- interaction score (4H324-AA): -1.15
- interaction score (4H341-AA): -1.06
- interaction score (4H3449-AA): -0.766
- interaction score (4H3619-AA): 1.07
- interaction score (4H3629-AA): -0.649
- interaction score (4H3777-AA): 2.49
- interaction score (4H380-AA): -1.85
- interaction score (4H3915-AA): -0.487
- interaction score (4H3974-AA): 1.62
- interaction score (4H432-AA): -1.48
- interaction score (4H446-AA): -1.67
- interaction score (4H63-AA): -0.668
Binder: DENAALEAENAALKAKIAALKAKIAALKG [4H1262-AA]
